What all share (assay): holdup assay
Common to all, as to set-up: key: below the threshold = too weak to quantify, mostly under pKd 3.1 to 4
Holding throughout (conditions): plain residues with an end cap or a label only (N-terminal biotin on a linker: ado-ado)

Assay [1] has as its target T1, APBA2_2, Q99767.
T1 sequence (Q99767 654-744, limits assumed, looked up): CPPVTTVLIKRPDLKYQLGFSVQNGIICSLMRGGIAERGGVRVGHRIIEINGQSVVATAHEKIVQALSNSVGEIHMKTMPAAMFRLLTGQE

For assay [2], the target named is T2, ARHGAP21, Q5T5U3.
T2 sequence (Q5T5U3 45-169, limits assumed, looked up): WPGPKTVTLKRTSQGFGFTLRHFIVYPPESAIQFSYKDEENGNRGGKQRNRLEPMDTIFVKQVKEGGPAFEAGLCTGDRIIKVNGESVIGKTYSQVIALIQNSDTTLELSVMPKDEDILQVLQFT

For assay [3], the target named is T3, CARD11, Q9BXL7.
T3 sequence (Q9BXL7 662-765, limits assumed, looked up): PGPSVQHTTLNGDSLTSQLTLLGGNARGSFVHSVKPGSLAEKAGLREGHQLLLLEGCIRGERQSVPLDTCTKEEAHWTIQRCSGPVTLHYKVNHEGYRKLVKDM

Assay [4] deals with T4, DFNB31_1, Q9P202.
T4 sequence (Q9P202 135-233, limits assumed, looked up): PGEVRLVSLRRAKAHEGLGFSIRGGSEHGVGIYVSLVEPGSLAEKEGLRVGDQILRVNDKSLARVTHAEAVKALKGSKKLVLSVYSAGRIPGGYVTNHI

Assay [5] concerns the target T5, DFNB31_3, Q9P202.
T5 sequence (Q9P202 811-907, limits assumed, looked up): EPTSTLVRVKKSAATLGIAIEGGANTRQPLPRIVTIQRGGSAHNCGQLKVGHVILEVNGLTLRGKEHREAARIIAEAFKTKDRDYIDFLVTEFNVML

The target in assay [6] is T6, FRMPD1, Q5SYB0.
T6 sequence (Q5SYB0 52-145, limits assumed, looked up): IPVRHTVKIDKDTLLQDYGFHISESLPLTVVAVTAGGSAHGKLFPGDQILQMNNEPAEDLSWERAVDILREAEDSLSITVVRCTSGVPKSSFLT

Assay [7] has as its target GORASP1, Q9BQQ3.
Assay [8] addresses GRIP2_3, Q9C0E4.
For assay [9], the target named is GRIP2_7, Q9C0E4.
Assay [10] addresses T7, HTRA3, P83110.
T7 sequence (P83110 354-453, limits assumed, looked up): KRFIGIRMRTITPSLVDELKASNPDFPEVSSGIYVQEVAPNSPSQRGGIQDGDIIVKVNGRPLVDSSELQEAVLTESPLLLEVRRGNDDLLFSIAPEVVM

For assay [11], the target named is LIMK2, P53671.
Assay [12] deals with MAGI1_2, Q96QZ7.
Assay [13] has as its target NHERF4_2, Q86UT5.
In assay [14] the target is T8, PARD3B_1, Q8TEW8.
T8 sequence (Q8TEW8 196-299, limits assumed, looked up): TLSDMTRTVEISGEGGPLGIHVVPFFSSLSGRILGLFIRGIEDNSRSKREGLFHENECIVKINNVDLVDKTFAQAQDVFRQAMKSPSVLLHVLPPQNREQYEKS

The target of assay [15] is PARD3_3, Q8TEW0.
Assay [16] has as its target T9, PDZD7_3, Q9H5P4.
T9 sequence (Q9H5P4 857-944, limits assumed, looked up): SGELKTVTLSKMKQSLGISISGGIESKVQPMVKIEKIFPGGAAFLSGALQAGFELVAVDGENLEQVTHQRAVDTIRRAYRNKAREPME

Assay [17] addresses SCRIB_1, Q14160.
For assay [18], the target named is SCRIB_3, Q14160.
Assay [19] concerns the target T10, SIPA1L2, Q9P2F8.
T10 sequence (Q9P2F8 945-1036, limits assumed, looked up): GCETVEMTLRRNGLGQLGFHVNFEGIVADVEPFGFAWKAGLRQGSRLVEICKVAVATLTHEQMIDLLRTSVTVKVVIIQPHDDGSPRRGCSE

Assay [20] addresses T11, SNTA1, Q13424.
T11 sequence (Q13424 82-180, limits assumed, looked up): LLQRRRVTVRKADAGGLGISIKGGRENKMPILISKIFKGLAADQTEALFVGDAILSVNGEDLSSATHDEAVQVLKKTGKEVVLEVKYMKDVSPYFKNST

Assay [21] concerns the target T12, SNTG1, Q9NSN8.
T12 sequence (Q9NSN8 52-150, limits assumed, looked up): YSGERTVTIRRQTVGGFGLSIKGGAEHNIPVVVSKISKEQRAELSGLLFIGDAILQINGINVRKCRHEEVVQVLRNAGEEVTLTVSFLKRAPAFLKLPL

The target of assay [22] is TJP1_2, Q07157.
The target in assay [23] is TJP2_1, Q9UDY2.
Assay [24] concerns the target T13, TJP3_3, O95049.
T13 sequence (O95049 375-456, limits assumed, looked up): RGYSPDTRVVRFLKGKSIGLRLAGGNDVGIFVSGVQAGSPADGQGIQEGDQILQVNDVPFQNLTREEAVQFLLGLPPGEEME

Data on 4 molecules can be found in PMC9482650, “Quantitative fragmentomics allow affinity mapping of interactomes” (Nature Communications, 2022).

By pKd is commonly meant −log10 of the Kd, conventionally taken in molar units.

Chain of SCRIB_1, Q14160 (Q14160 718-814): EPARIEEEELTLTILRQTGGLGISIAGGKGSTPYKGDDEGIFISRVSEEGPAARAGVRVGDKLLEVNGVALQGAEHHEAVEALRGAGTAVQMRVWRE
Chain of SCRIB_3, Q14160 (Q14160 999-1103): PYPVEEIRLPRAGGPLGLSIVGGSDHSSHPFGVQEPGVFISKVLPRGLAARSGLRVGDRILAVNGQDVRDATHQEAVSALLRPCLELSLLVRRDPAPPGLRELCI
Chain of LIMK2, P53671 (P53671 143-248): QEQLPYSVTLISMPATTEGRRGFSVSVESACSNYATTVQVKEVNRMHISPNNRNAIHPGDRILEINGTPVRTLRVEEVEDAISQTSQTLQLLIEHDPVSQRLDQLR
Chain of GRIP2_3, Q9C0E4 (Q9C0E4 238-339): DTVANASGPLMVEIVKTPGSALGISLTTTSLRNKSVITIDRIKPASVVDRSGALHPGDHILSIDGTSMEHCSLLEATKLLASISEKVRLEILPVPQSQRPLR
Chain of TJP2_1, Q9UDY2 (Q9UDY2 24-128): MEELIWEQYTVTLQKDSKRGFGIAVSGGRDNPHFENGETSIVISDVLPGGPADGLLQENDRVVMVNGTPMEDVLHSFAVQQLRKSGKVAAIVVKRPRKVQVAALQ
Chain of PARD3_3, Q8TEW0 (Q8TEW0 582-685): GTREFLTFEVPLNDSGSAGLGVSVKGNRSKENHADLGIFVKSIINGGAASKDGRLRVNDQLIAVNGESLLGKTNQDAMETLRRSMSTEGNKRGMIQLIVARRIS
Chain of MAGI1_2, Q96QZ7 (Q96QZ7 456-580): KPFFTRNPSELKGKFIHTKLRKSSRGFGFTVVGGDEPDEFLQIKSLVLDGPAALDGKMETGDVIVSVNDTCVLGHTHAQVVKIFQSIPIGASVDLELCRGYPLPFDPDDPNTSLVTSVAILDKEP
Chain of NHERF4_2, Q86UT5 (Q86UT5 220-308): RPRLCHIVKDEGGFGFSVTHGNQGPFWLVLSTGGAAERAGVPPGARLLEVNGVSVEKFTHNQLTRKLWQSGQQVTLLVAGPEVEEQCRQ
Chain of GORASP1, Q9BQQ3 (Q9BQQ3 1-208): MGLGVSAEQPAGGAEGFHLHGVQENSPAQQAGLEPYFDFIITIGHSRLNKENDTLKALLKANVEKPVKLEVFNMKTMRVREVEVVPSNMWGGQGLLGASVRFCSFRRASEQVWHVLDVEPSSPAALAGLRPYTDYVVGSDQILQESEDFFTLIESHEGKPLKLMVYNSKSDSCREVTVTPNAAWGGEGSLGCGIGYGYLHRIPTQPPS
Chain of GRIP2_7, Q9C0E4 (Q9C0E4 934-1023): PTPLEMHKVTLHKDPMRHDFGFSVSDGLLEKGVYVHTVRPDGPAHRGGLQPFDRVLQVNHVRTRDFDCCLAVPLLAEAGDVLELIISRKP
Chain of TJP1_2, Q07157 (Q07157 181-274): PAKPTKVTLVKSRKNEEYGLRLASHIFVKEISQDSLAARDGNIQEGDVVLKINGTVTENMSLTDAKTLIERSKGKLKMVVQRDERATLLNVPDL

Regarding DFKHTKSFII [JAM2, P57087], the pKd result in [1] was “below the threshold”; in [2], “below the threshold”; in assay [3] it was “below the threshold”; in assay [4] it was “below the threshold”; in [5] it was 3.71; in assay [6] it was “below the threshold”. For the same molecule, the pKd in assay [7] was 5.07; in assay [8], “below the threshold”; in [9], 3.88; in assay [10], 4.1; in assay [11], “below the threshold”; in assay [12] it was “below the threshold”. The pKd entry in assay [13] was “below the threshold”; in assay [14], 4.95; in assay [15], 4.42; in assay [16], “below the threshold”; in [17], “below the threshold”; in assay [18] it was 3.65. For the same molecule, the pKd entry in assay [19], in [20], in assay [21], in assay [22], in assay [23] and in assay [24] was “below the threshold” each time.
On to PKSNSSKEYV [CLDN7, O95471], for which the pKd result in [1], in assay [2], in assay [3], in assay [4], in assay [5] and in assay [6] was “below the threshold” each time. In addition, the pKd result in [7] was “below the threshold”; in [8], “below the threshold”; in assay [9] it was “below the threshold”; in assay [10], 3.8; in assay [11], “below the threshold”; in [12], “below the threshold”. In addition, the pKd entry in assay [13], in assay [14], in assay [15], in assay [16], in assay [17] and in assay [18] was “below the threshold” in each case. The pKd result in assay [19] was “below the threshold”; in assay [20], “below the threshold”; in assay [21], “below the threshold”; in assay [22], “below the threshold”; in assay [23], 4.28; in assay [24], “below the threshold”.
In the case of SQPLLVHDDV [KIT, P10721], the pKd result in [1], in assay [2], in assay [3], in assay [4], in assay [5] and in assay [6] was “below the threshold” in each case. Also, the pKd entry in assay [7], in assay [8], in [9], in [10], in assay [11] and in assay [12] was “below the threshold” in each case. The pKd result in [13], in assay [14], in assay [15], in assay [16], in assay [17] and in assay [18] was “below the threshold” throughout. Further, the pKd result is “below the threshold” in [19]; “below the threshold” in [20]; “below the threshold” in assay [21]; 3.5 in assay [22]; “below the threshold” in assay [23]; “below the threshold” in assay [24].
As for EFKQTSSFLV [JAM1, Q9Y624], the pKd result was “below the threshold” in assay [1]; “below the threshold” in assay [2]; “below the threshold” in assay [3]; “below the threshold” in assay [4]; 3.93 in assay [5]; “below the threshold” in assay [6]. Moreover, the negative-log Kd (pKd) in [7] was 4.37; in assay [8] it was “below the threshold”; in [9] it was 3.86; in [10], 4.16; in assay [11], “below the threshold”; in [12], “below the threshold”. The pKd entry in [13] was “below the threshold”; in assay [14], 4.72; in assay [15] it was 3.75; in assay [16] it was 4.03; in assay [17] it was “below the threshold”; in assay [18], “below the threshold”. Besides, the pKd entry is “below the threshold” in assay [19]; “below the threshold” in [20]; “below the threshold” in assay [21]; 4.01 in assay [22]; “below the threshold” in assay [23]; “below the threshold” in assay [24].
